Laboratory results reported in the supplement of paper PMC10567573.

B1: RPS21 (parent)
chain: AEVSWEPGRREGCDICAGKAGCPI
B2: RHOBTB3 (parent)
chain: DSCCPAGIFQAMCLLICAEMYQVS

Variants of: B1
Test: protein stability index of a GFP-peptide fusion (GPS, HEK-293T) (PSI 1-6); higher = more stable
Settings: c terminus: a fixed tail appended
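Further: lentivirally expressed fusions sorted by FACS into six bins by GFP to DsRed ratio, PSI derived from sequencing read proportions per bin multiplied by bin number.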

Variant | protein stability index
AEVSWEPGRREGCDICAGKAGKPI | 2.99
AEVSWEPGRREGCDICAGKAGWPI | 2.82
AEVSWEPGRREGCDICAGKAGPPI | 3.34
AEVSWEPGRREGCDICAGKAGFPI | 2.28
AEVSWEPGRREGCDICAGKAGMPI | 3.11
AEVSWEPGRREGCDICAGKAGEPI | 3.88
AEVSWEPGRREGCDICAGKAGHPI | 2.9
AEVSWEPGRREGCDICAGKAGNPI | 2.96
AEVSWEPGRREGCDICAGKAGDPI | 3.66
AEVSWEPGRREGCDICAGKAGYPI | 2.2
AEVSWEPGRREGCDICAGKAGRPI | 2.32
AEVSWEPGRREGCAICAGKAGCPI | 2.13
AEVSWEPGRREGCVICAGKAGCPI | 3.22
AEVSWEPGRREGCHICAGKAGCPI | 2.5
AEVSWEPGRREGCKICAGKAGCPI | 3.66
AEVSWEPGRREGCMICAGKAGCPI | 2.18
AEVSWEPGRREGCIICAGKAGCPI | 3.65
AEVSWEPGRREGCNICAGKAGCPI | 2.35
AEVSWEPGRREGCDIYAGKAGCPI | 3.04
AEVSWEPGRREGCDIKAGKAGCPI | 3.86
AEVSWEPGRREGCDIWAGKAGCPI | 1.6
AEVSWEPGRREGCDIIAGKAGCPI | 3.69
AEVSWEPGRREGCDIVAGKAGCPI | 3.67
AEVSWEPGRREGCDIQAGKAGCPI | 4.37

Variant | protein stability index
AEVSWEPGRREGCDIDAGKAGCPI | 3.44
AEVSWEPGRREGCDIRAGKAGCPI | 4.22
AEVSWEPGRREGCDILAGKAGCPI | 4
AEVSWEPGRREGCDITAGKAGCPI | 2.97
AEVSWEPGRREGCDIFAGKAGCPI | 3.58
AEVSWEPGRREGCDICAGKAGCDI | 3.85
AEVSWEPGRREGCDICAGKAGCAI | 2.32
AEVSWEPGRREGCDICAGKAGCHI | 2.61
AEVSWEPGRREGCDICAGKAGCLI | 2.92
AEVSWEPGRREGCDICAGKAGCQI | 2.68
AEVSWEPGRREGCDICAGKAGCEI | 3.1
AEVSWEPGRREGCDICAGKAGCVI | 2.18
AEVSWEPGRREGCDICAGKAGCYI | 1.73
AEVSWEPGRREGCDICAGKAGCGI | 3.82
AEVSWEPGRREGCDICAGKAGCWI | 1.8
AEVSWEPGRREGCDICAGKAGCFI | 2.04
AEVSWEPGRREGCDICAGKAGCMI | 1.48
AEVSWEPGRREGCDICAGKAGCII | 3.05
AEVSWEPGRREGCDICAGKAGCTI | 2.27
AEVSWEPGRREGCDICAGKAGCNI | 2.62
AEVSWEPGRREGCDICAGKAGCKI | 3.04
AEVSWEPGRREGCDICAGKASCPI | 2.59
AEVSWEPGRREGCDICAGKARCPI | 2.75
AEVSWEPGRREGCDICAGKANCPI | 2.82

Variant | protein stability index
AEVSWEPGRREGCDICAGKAFCPI | 2.13
AEVSWEPGRREGCDICAGKACCPI | 2.84
AEVSWEPGRREGCDICAGKAQCPI | 4.18
AEVSWEPGRREGCDICAGKAACPI | 3.26
AEVSWEPGRREGCDICAGKALCPI | 3.38
AEVSWEPGRREGCDICAGKADCPI | 3.59
AEVSWEPGRREGCDICAGKAPCPI | 3.35
AEVSWEPGRREGCDICAGKAYCPI | 3.56
AEVSWEPGRREGCDICAGKAICPI | 2.67
AEVSWEPGRREGCDICAGKAMCPI | 3.01
AEVSWEPGRREMCDICAGKAGCPI | 4.41
AEVSWEPGRREECDICAGKAGCPI | 3.86
AEVSWEPGRRETCDICAGKAGCPI | 3.67
AEVSWEPGRRECCDICAGKAGCPI | 3.29
AEVSWEPGRREQCDICAGKAGCPI | 2.45
AEVSWEPGRREDCDICAGKAGCPI | 4.16
AEVSWEPGRREICDICAGKAGCPI | 2.52
AEVSWEPGRREPCDICAGKAGCPI | 3.21
AEVSWEPGRRENCDICAGKAGCPI | 3.07
AEVSWEPGRREVCDICAGKAGCPI | 2.63
AEVSWEPGRREKCDICAGKAGCPI | 2.5
AEVSWEPGRREWCDICAGKAGCPI | 4.38
AEVSWEPGRREGCDICAGKAGCPH | 5.43
AEVSWEPGRREGCDICAGKAGCPG | 3.41

Variant | protein stability index
AEVSWEPGRREGCDICAGKAGCPS | 3.79
AEVSWEPGRREGCDICAGKAGCPY | 2.54
AEVSWEPGRREGCDICAGKAGCPA | 4.48
AEVSWEPGRREGCDICAGKAGCPT | 3.96
AEVSWEPGRREGCDICAGKAGCPE | 4.76
AEVSWEPGRREGCDICAGKAGCPV | 3.19
AEVSWEPGRREGCDICAGKAGCPC | 5.83
AEVSWEPGRREGCDRCAGKAGCPI | 2.96
AEVSWEPGRREGCDTCAGKAGCPI | 3.83
AEVSWEPGRREGCDCCAGKAGCPI | 4.43
AEVSWEPGRREGCDWCAGKAGCPI | 3.74
AEVSWEPGRREGCDGCAGKAGCPI | 4.06
AEVSWEPGRREGCDQCAGKAGCPI | 3.46
AEVSWEPGRREGCDLCAGKAGCPI | 2.43
AEVSWEPGRREGCDMCAGKAGCPI | 3.42
AEVSWEPGRREGCDSCAGKAGCPI | 4.14
AEVSWEPGRREGCDHCAGKAGCPI | 4.36
AEVSWEPGRREGCDFCAGKAGCPI | 2.08
AEVSWEPGRREGCDECAGKAGCPI | 4.25
AEVSWEPGRREGCDYCAGKAGCPI | 3.21
AEVSWEPGRREGCDVCAGKAGCPI | 3.53
AEVSWEPGRREGCDICAGKRGCPI | 2.26
AEVSWEPGRREGCDICAGKEGCPI | 2.36
AEVSWEPGRREGCDICAGKVGCPI | 2.59

Variant | protein stability index
AEVSWEPGRREGCDICAGKIGCPI | 2.53
AEVSWEPGRREGCDICAGKDGCPI | 3.5
AEVSWEPGRREGCDICAGKFGCPI | 3.1
AEVSWEPGRREGCDICAGKHGCPI | 3.25
AEVSWEPGRREGCDICAGKSGCPI | 3.69
AEVSWEPGRREGCDICAGKYGCPI | 2.96
AEVSWEPGRREGCDICAGKTGCPI | 3.75
AEVSWEPGRREGCDICAGKPGCPI | 3.34
AEVSWEPGRREGCDICAGKCGCPI | 4.67
AEVSWEPGRREGCDICAGKLGCPI | 2.48
AEVSWEPGRREGCDICAGKKGCPI | 1.5
AEVSWEPGRREGCDICAGKNGCPI | 3.26
AEVSWEPGRREGDDICAGKAGCPI | 4.06
AEVSWEPGRREGGDICAGKAGCPI | 3.88
AEVSWEPGRREGVDICAGKAGCPI | 5.29
AEVSWEPGRREGMDICAGKAGCPI | 4.01
AEVSWEPGRREGHDICAGKAGCPI | 4.27
AEVSWEPGRREGTDICAGKAGCPI | 4.38
AEVSWEPGRREGFDICAGKAGCPI | 3.97
AEVSWEPGRREGADICAGKAGCPI | 2.49
AEVSWEPGRREGEDICAGKAGCPI | 4.21
AEVSWEPGRREGYDICAGKAGCPI | 3.84
AEVSWEPGRREGRDICAGKAGCPI | 4.04
AEVSWEPGRREGCDICAGHAGCPI | 2.13

Variant | protein stability index
AEVSWEPGRREGCDICAGMAGCPI | 2.48
AEVSWEPGRREGCDICAGWAGCPI | 1.28
AEVSWEPGRREGCDICAGYAGCPI | 2.24
AEVSWEPGRREGCDICAGEAGCPI | 4.29
AEVSWEPGRREGCDICAGDAGCPI | 4.29
AEVSWEPGRREGCDICAGFAGCPI | 2.15
AEVSWEPGRREGCDICAGTAGCPI | 2.62
AEVSWEPGRREGCDICAGLAGCPI | 2.3
AEVSWEPGRREGCDICAGIAGCPI | 3.79
AEVSWEPGRREGCDICAGGAGCPI | 3.99
AEVSWEPGRREGCDICAGNAGCPI | 2
AEVSWEPGRREGCDICAGQAGCPI | 2.97
AEVSWEPGRREGCDICYGKAGCPI | 3.57
AEVSWEPGRREGCDICRGKAGCPI | 2.97
AEVSWEPGRREGCDICMGKAGCPI | 2.29
AEVSWEPGRREGCDICHGKAGCPI | 3.66
AEVSWEPGRREGCDICTGKAGCPI | 3.58
AEVSWEPGRREGCDICCGKAGCPI | 3.11
AEVSWEPGRREGCDICVGKAGCPI | 3.14
AEVSWEPGRREGCDICNGKAGCPI | 3.45
AEVSWEPGRREGCDICLGKAGCPI | 2.01
AEVSWEPGRREGCDICIGKAGCPI | 2.59
AEVSWEPGRREGCDICEGKAGCPI | 3.78
AEVSWEPGRREGCDICPGKAGCPI | 3.72

Variant | protein stability index
AEVSWEPGRREGCDICFGKAGCPI | 2.3
AEVSWEPGRREGCDICSGKAGCPI | 2.46
AEVSWEPGRREGCDICGGKAGCPI | 3.38
AEVSWEPGRRYGCDICAGKAGCPI | 2.69
AEVSWEPGRREGCDICATKAGCPI | 3.28
AEVSWEPGRREGCDICAYKAGCPI | 2.66
AEVSWEPGRREGCDICAKKAGCPI | 2.7
AEVSWEPGRREGCDICADKAGCPI | 4.25
AEVSWEPGRREGCDICAMKAGCPI | 3.06
AEVSWEPGRREGCDICACKAGCPI | 2.79
AEVSWEPGRREGCDICAFKAGCPI | 2.75
AEVSWEPGRREGCDICASKAGCPI | 3.63
AEVSWEPGRREGCDICAPKAGCPI | 3.47
AEVSWEPGRREGCDICAAKAGCPI | 3.08
AEVSWEPGRREGCDICAHKAGCPI | 2.97
AEVSWEPGRREGCDICAWKAGCPI | 2.74
AEVSWEPGRREGCDICAIKAGCPI | 2.24
AEVSWEPGRREGCDICANKAGCPI | 3.63

Variants of: B2
Test: as above
Settings: c terminus: a fixed tail appended

Variant | protein stability index
DSCHPAGIFQAMCLLICAEMYQVS | 4.64
DSCFPAGIFQAMCLLICAEMYQVS | 2.94
DSCGPAGIFQAMCLLICAEMYQVS | 2.06
PSCCPAGIFQAMCLLICAEMYQVS | 1.89
NSCCPAGIFQAMCLLICAEMYQVS | 3.73
RSCCPAGIFQAMCLLICAEMYQVS | 2.64
MSCCPAGIFQAMCLLICAEMYQVS | 3.85
TSCCPAGIFQAMCLLICAEMYQVS | 3.52
ASCCPAGIFQAMCLLICAEMYQVS | 3.58
ISCCPAGIFQAMCLLICAEMYQVS | 2.69
ESCCPAGIFQAMCLLICAEMYQVS | 2.3
SSCCPAGIFQAMCLLICAEMYQVS | 2.77
DSSCPAGIFQAMCLLICAEMYQVS | 3.1
DSTCPAGIFQAMCLLICAEMYQVS | 1.39
DSHCPAGIFQAMCLLICAEMYQVS | 1.02
DSACPAGIFQAMCLLICAEMYQVS | 3.18
DSKCPAGIFQAMCLLICAEMYQVS | 3.1
DSPCPAGIFQAMCLLICAEMYQVS | 2.93
DSRCPAGIFQAMCLLICAEMYQVS | 2.33
DTCCPAGIFQAMCLLICAEMYQVS | 3.94
DPCCPAGIFQAMCLLICAEMYQVS | 2.93
DWCCPAGIFQAMCLLICAEMYQVS | 3.17
DICCPAGIFQAMCLLICAEMYQVS | 3.54
DKCCPAGIFQAMCLLICAEMYQVS | 4.66
DNCCPAGIFQAMCLLICAEMYQVS | 3.1
DLCCPAGIFQAMCLLICAEMYQVS | 2.17
